Source: patent US7423021B2, “Peptidic thrombin inhibitors” (NSCI Novel Science International GmbH, priority 2003, dated 2008)
pKi: −log10 of the molar value. Square brackets hold non-standard residues; d marks the D form. hArg = N=C(N)NCCCC[C@H](N)C(=O)O; Cha = N[C@@H](CC1CCCCC1)C(=O)O; Cit = NC(=O)NCCC[C@H](N)C(=O)O; dCha = N[C@H](CC1CCCCC1)C(=O)O; Dcp = dichlorophenylalanine; Nle = CCCC[C@H](N)C(=O)O; Aze = O=C(O)[C@@H]1CCN1; Tea = thienylalanine

Target: thrombin
Experiment: not given
Settings: literature values; cited from earlier work

Substance | pKi
H-D-Phe-Pro-Arg-H | 7.15

Target: thrombin (Homo sapiens, UniProt P00734)
Experiment: in-vitro inhibition of the amidase activity of thrombin (fluorogenic substrate Tos-Gly-Pro-Arg-AMC)
Format: biochemical
Set-up: 10 μl of human thrombin solution
Settings: peptide concentration of 250 nM
Method: The values of the inhibiting constants Ki were obtained from assays in which thrombin hydrolyzes the fluorogenic substrate Tos-Gly-Pro-Arg-(7-amino-4-methylcumarin). The assays were carried out in […] of assay buffer (0.05 M tris, 0.1 M NaCl, 0.1% PEG 8000, pH 7.6) with 10 μl of human thrombin solution (10^−5 U/μl in the assay buffer) and 140 μl of a solution of the fluorogenic substrate in an assay buffer at a concentration of 30 μM. Solutions of the test compound (10 μl) were added at various concentrations. The rates of the hydrolysis of the substrate were measured by monitoring the reactions at […] of the release of 7-amino-4-methylcumarin using AMC. The reaction reached an equilibrium state within three minutes, after thrombin, the substrate, and an inhibitor were mixed. The kinetic data of the competing inhibition (Km, Vmax, and Ki) were analyzed by means of the representation according to Hanes (A/V against A at various values of A, where A is the substrate concentration and V the reaction rate).

Substance | inhibition of the amidase activity of the thrombin [%]
N-acetyl-L-Tea-D-Cha-L-Aze-D-Tyr-L-Har amide (Ac-[Tea][dCha][Aze][dY][hArg]-NH2) [Example 25] | 74
N-acetyl-L-Nle-D-Cha-L-Aze-D-Tyr-L-Har amide (Ac-[Nle][dCha][Aze][dY][hArg]-NH2; SMILES CCCC[C@H](NC(C)=O)C(=O)N[C@H](CC1CCCCC1)C(=O)N1CC[C@H]1C(=O)N[C@H](Cc1ccc(O)cc1)C(=O)N[C@@H](CCCCNC(=N)N)C(N)=O) [Example 27] | 89
N-acetyl-L-Dcp-D-Cha-L-Aze-D-Tyr-L-Har amide (Ac-[Dcp][dCha][Aze][dY][hArg]-NH2) [Example 21] | 75

Same assay, conditions: peptide concentration of 1 μM

Substance | inhibition of the amidase activity of the thrombin [%]
N-acetyl-L-Tyr-L-Cit-L-Cha-D-Pro-D-Tyr-L-Arg amide (Ac-Y[Cit][Cha][dP][dY]R-NH2; SMILES CC(=O)N[C@@H](Cc1ccc(O)cc1)C(=O)N[C@@H](CCCNC(N)=O)C(=O)N[C@@H](CC1CCCCC1)C(=O)N1CCC[C@@H]1C(=O)N[C@H](Cc1ccc(O)cc1)C(=O)N[C@@H](CCCNC(=N)N)C(N)=O) [Example 6] | 55
N-acetyl-L-Ser-L-Ala-L-Cha-D-Pro-D-Tyr-L-Arg amide (Ac-SA[Cha][dP][dY]R-NH2; SMILES CC(=O)N[C@@H](CO)C(=O)N[C@@H](C)C(=O)N[C@@H](CC1CCCCC1)C(=O)N1CCC[C@@H]1C(=O)N[C@H](Cc1ccc(O)cc1)C(=O)N[C@@H](CCCNC(=N)N)C(N)=O) [Example 10] | 47
N-acetyl-L-Ala-L-Cha-D-Pro-D-Tyr-L-Arg amide (Ac-A[Cha][dP][dY]R-NH2; SMILES CC(=O)N[C@@H](C)C(=O)N[C@@H](CC1CCCCC1)C(=O)N1CCC[C@@H]1C(=O)N[C@H](Cc1ccc(O)cc1)C(=O)N[C@@H](CCCNC(=N)N)C(N)=O) [Example 4] | 44
N-acetyl-L-Ser-L-Ser-L-Cha-D-Pro-D-Tyr-L-Arg amide (Ac-SS[Cha][dP][dY]R-NH2; SMILES CC(=O)N[C@@H](CO)C(=O)N[C@@H](CO)C(=O)N[C@@H](CC1CCCCC1)C(=O)N1CCC[C@@H]1C(=O)N[C@H](Cc1ccc(O)cc1)C(=O)N[C@@H](CCCNC(=N)N)C(N)=O) [Example 7] | 40
N-acetyl-L-Ile-L-Arg-L-Cha-D-Pro-D-Tyr-L-Arg amide (Ac-IR[Cha][dP][dY]R-NH2; SMILES CC[C@H](C)[C@H](NC(C)=O)C(=O)N[C@@H](CCCNC(=N)N)C(=O)N[C@@H](CC1CCCCC1)C(=O)N1CCC[C@@H]1C(=O)N[C@H](Cc1ccc(O)cc1)C(=O)N[C@@H](CCCNC(=N)N)C(N)=O) [Example 5] | 61
N-acetyl-L-Tyr-D-Pro-L-Cha-D-Pro-D-Tyr-L-Arg amide (Ac-Y[dP][Cha][dP][dY]R-NH2; SMILES CC(=O)N[C@@H](Cc1ccc(O)cc1)C(=O)N1CCC[C@@H]1C(=O)N[C@@H](CC1CCCCC1)C(=O)N1CCC[C@@H]1C(=O)N[C@H](Cc1ccc(O)cc1)C(=O)N[C@@H](CCCNC(=N)N)C(N)=O) [Example 15] | 44
